Measured values reported in US20220401560A1, “PEPTIDE ENCAPSULATING FERRITIN” (Ajinomoto Co., Inc., priority 2019, published 2022).

Target: transferrin receptor TfR (human) (UniProt P02786)
Assay: cell-based or functional assay

Sequence of FAM-SV40 encapsulating FTH (P02794 whole entry): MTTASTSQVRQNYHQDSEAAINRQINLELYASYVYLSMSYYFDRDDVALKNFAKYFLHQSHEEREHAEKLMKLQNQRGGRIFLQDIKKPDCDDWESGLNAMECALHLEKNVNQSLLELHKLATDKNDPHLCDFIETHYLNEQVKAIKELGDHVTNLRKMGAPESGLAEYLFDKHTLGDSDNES

Question: What does the source list for “FAM-SV40 encapsulating FTH (from UniProt P02794 1-183)”?
Answer: concentration needed for fluorescence from 90% or more of HEK 293E cells (low TfR expression) by FACS: > 800 nM; percent of fluorescent SKBR 3 cells (high TfR expression) by FACS at 100 nM FAM-SV40 encapsulating FTH: > 90%; ratio of fluorescent cells, SKBR 3 (high TfR) against HEK 293E (low TfR), at 100 nM: 60 times
